Test results: ChEMBL document CHEMBL1132182, “2,6-Difluorophenol as a bioisostere of a carboxylic acid: bioisosteric analogues of gamma-aminobutyric acid” (J Med Chem, 1999)

System: NCCCC(=O)O
Description: Michaelis-Menten constant of the compound.

Chain of 4-aminobutyrate aminotransferase, mitochondrial (Sus scrofa), P80147 (P80147 whole entry): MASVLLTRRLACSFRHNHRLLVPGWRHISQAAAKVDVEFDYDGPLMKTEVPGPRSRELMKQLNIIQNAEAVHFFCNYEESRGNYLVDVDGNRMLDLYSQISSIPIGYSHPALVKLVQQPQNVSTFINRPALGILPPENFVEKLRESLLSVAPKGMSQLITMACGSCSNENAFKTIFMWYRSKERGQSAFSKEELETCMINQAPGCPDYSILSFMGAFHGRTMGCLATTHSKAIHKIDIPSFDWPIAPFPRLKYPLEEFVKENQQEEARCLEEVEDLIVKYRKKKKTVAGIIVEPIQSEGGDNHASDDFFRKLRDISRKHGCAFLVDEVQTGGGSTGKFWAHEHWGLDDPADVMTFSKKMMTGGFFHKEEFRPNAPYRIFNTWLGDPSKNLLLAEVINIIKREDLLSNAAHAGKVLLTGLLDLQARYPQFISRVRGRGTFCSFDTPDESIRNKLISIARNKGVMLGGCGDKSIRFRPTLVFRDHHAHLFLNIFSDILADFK

## 4-aminobutyrate aminotransferase, mitochondrial (Sus scrofa), P80147
  Km: 2500 µM
